Our source for the binding result and Kd values is article PMC5990521, “Structural basis of DUX4/IGH-driven transactivation”.

Holding throughout (assay): BLI; BLI on Octet Red 96, biotin-DNA-DRE on SA sensors, protein 0.5-32 uM (HD2) or 0.25-16 uM (HD1-HD2); buffer, salt, pH and temperature not given in the material
A general note: Biolayer interferometry detects binding as a change in optical thickness at a sensor tip.

One data set has as its target DUX4 HD2 R98A (human, UniProt Q9UBX2 94-153, R98A). The note with it: protein: recombinant; tags: N-terminal His-tag, removed with thrombin; blunt.
For the next data set, the target named is DUX4 HD2 R95A (human, UniProt Q9UBX2 94-153, R95A). The note with it: protein: recombinant; tags: N-terminal His-tag, removed with thrombin; blunt.
Sequence of DUX4 HD2 R95A (Q9UBX2 94-153 R95A): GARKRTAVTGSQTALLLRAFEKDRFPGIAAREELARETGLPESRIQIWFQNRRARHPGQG
For a further data set, the target named is DUX4 HD2 R148E (human, UniProt Q9UBX2 94-153, R148E). The note with it: protein: recombinant; tags: N-terminal His-tag, removed with thrombin; blunt.
Sequence of DUX4 HD2 R148E (Q9UBX2 94-153 R148E): as the sequence (Q9UBX2 94-153 R95A) above, with A2R, R55E counted along it
The next data set concerns the target DUX4 HD2 Q143E (human, UniProt Q9UBX2 94-153, Q143E). To be noted: protein: recombinant; tags: N-terminal His-tag, removed with thrombin; blunt.
The target in a further data set is DUX4 HD1-HD2 (human, UniProt Q9UBX2 19-153). To be noted: protein: recombinant; blunt.
Sequence of DUX4 HD1-HD2 (Q9UBX2 19-153): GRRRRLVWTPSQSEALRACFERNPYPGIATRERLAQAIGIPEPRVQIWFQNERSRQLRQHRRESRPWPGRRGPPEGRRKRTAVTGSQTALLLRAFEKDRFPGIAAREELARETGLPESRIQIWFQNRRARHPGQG
The target in the next data set is DUX4 HD2 R96A (human, UniProt Q9UBX2 94-153, R96A). The note with it: protein: recombinant; tags: N-terminal His-tag, removed with thrombin; blunt.
Sequence of DUX4 HD2 R96A (Q9UBX2 94-153 R96A): as the sequence (Q9UBX2 94-153 R95A) above, with A2R, R3A counted along it
In the next data set the target is DUX4 HD2 N144E (human, UniProt Q9UBX2 94-153, N144E). The note with it: protein: recombinant; tags: N-terminal His-tag, removed with thrombin; blunt.
Sequence of DUX4 HD2 N144E (Q9UBX2 94-153 N144E): as the sequence (Q9UBX2 94-153 R95A) above, with A2R, N51E counted along it
The next data set deals with DUX4 HD2 K97A (human, UniProt Q9UBX2 94-153, K97A). To be noted: protein: recombinant; tags: N-terminal His-tag, removed with thrombin; blunt.
Sequence of DUX4 HD2 K97A (Q9UBX2 94-153 K97A): as the sequence (Q9UBX2 94-153 R95A) above, with A2R, K4A counted along it

Sequence of DUX4 HD2 R98A (Q9UBX2 94-153 R98A): as the sequence (Q9UBX2 94-153 R95A) above, with A2R, R5A counted along it
Sequence of DUX4 HD2 Q143E (Q9UBX2 94-153 Q143E): as the sequence (Q9UBX2 94-153 R95A) above, with A2R, Q50E counted along it

B1: biotin-DNA-DRE (BLI) (dsDNA)
DNA 1: TTCTAATCTAATCA
DNA 2: TGATTAGATTAGAA
modifications: biotin
One may read the Kd as the equilibrium constant for the complex coming apart. As to B1, the binding result in the data set with DUX4 HD2 R98A, in the data set with DUX4 HD2 R95A, in the data set with DUX4 HD2 R96A and with DUX4 HD2 K97A was “no binding” in each case. Moreover, the Kd came to 67 µM in the data set with DUX4 HD2 R148E, 31 µM in the data set with DUX4 HD2 Q143E, 1.4 µM with DUX4 HD1-HD2 and 55 µM with DUX4 HD2 N144E.
